The values below come from US20220002403A1 (Merck Sharp & Dohme, published 2022).

Assay [1] has as its target T1, human ILT2 expressed on mouse 3A9 T cells (human, UniProt Q8NHL6 24-650).
T1 construct: whole, on cells
Put plainly: flow cytometry on 3A9 T cell transfectants.

For assay [2], the target named is T2, human ILT5 expressed on mouse 3A9 T cells (human, UniProt O75022 24-631).
T2 construct: whole, on cells
Nature of the assay: flow cytometry on 3A9 T cell transfectants.

Assay [3] concerns the target T3, human LILRB5 expressed on mouse 3A9 T cells (human, UniProt O75023 24-590).
T3 construct: whole, on cells
Nature of the assay: flow cytometry on 3A9 T cell transfectants.

For assay [4], the target named is T4, human LILRA1 expressed on mouse 3A9 T cells (human, UniProt O75019 17-489).
T4 construct: whole, on cells
T4 sequence (O75019 17-489): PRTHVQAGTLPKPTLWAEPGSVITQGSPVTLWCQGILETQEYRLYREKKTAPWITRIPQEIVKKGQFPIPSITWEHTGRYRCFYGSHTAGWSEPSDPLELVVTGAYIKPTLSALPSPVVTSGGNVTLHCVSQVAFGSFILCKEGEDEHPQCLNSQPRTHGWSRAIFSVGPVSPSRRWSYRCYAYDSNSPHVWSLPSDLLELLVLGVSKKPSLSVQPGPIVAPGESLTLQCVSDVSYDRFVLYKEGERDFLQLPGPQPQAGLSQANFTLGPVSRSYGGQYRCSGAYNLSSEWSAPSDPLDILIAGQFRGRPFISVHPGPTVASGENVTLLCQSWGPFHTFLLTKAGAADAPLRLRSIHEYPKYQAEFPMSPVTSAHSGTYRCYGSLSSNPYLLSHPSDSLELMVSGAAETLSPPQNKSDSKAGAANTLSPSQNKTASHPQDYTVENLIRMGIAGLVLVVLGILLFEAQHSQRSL
Put plainly: flow cytometry on 3A9 T cell transfectants.

Assay [5] concerns the target T5, human LILRA2 expressed on mouse 3A9 T cells (human, UniProt Q8N149 24-483).
T5 construct: whole, on cells
Put plainly: flow cytometry on 3A9 T cell transfectants.

Assay [6] addresses T6, human ILT7 expressed on mouse 3A9 T cells (human, UniProt P59901 24-499).
T6 construct: whole, on cells
Put plainly: flow cytometry on 3A9 T cell transfectants.

Assay [7] addresses T7, human ILT8 expressed on mouse 3A9 T cells (human, UniProt Q6PI73 24-481).
T7 construct: whole, on cells
Put plainly: flow cytometry on 3A9 T cell transfectants.

Assay [8] addresses T8, human ILT11 expressed on mouse 3A9 T cells (human, UniProt A6NI73 42-299).
T8 construct: whole, on cells
Put plainly: flow cytometry on 3A9 T cell transfectants.

Assay [9] has as its target T9, human ILT3 (two variants) expressed on mouse 3A9 T cells (human, UniProt Q8NHJ6 22-448).
T9 construct: whole, on cells; Two variants were tested
Nature of the assay: flow cytometry on 3A9 T cell transfectants (two ILT3 variants).

Assay [10] addresses T10, ILT4-His (recombinant extracellular domain of human ILT4 fused to a poly-Histidine tag) (human, UniProt Q8N423 22-460).
T10 construct: also called polyhistidine-tagged human ILT4; recombinant histidine tagged, extracellular domain of ILT4; not shown: poly-histidine tag
Nature of the assay: SPR; ratio of KD to that of 1E1(G4) (the reference itself).

Assay [11] has as its target T10, ILT4-His (recombinant extracellular …). Put plainly: SPR (Biacore T200): mAb captured by human Fc capture on CM5 chip, ILT4-His titrated; 1:1 model; n=2.
Assay [12] deals with T11, human ILT4 expressed on CHO cells (CHO/ILT4 cell line) (human, UniProt Q8N423 22-597).
T11 construct: also called CHO/ILT4+ cells; CHO-expressed ILT4
T11 sequence (Q8N423 other isoform, or with tags, fused parts or gaps): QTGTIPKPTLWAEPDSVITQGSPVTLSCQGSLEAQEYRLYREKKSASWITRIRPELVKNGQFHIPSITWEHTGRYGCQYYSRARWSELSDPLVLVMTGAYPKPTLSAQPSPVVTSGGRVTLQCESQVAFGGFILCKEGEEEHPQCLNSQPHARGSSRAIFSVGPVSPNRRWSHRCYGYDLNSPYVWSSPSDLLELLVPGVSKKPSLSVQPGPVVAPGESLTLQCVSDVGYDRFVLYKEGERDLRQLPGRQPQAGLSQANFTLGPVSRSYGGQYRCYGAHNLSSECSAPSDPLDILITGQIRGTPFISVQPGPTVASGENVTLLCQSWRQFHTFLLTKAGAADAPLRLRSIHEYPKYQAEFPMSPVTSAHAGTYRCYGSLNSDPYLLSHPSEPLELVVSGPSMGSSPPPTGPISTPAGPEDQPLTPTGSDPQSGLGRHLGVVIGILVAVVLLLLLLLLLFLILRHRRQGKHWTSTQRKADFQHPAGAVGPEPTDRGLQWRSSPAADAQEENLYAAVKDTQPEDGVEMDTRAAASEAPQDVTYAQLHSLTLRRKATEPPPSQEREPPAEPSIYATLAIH
Put plainly: cell-based ligand blocking assay: CHO/ILT4 cells pre-incubated with antibody (1-20,000 ng/mL), then biotinylated HLA-G/Fc.

Assay [13] deals with T12, recombinant human ILT4 antigen chemically coupled to Luminex beads (ILT4/Fc) (human, UniProt Q8N423 22-460).
T12 construct: also called Luminex bead-coupled ILT4/Fc; not shown: Fc part
T12 sequence (Q8N423 other isoform, or with tags, fused parts or gaps): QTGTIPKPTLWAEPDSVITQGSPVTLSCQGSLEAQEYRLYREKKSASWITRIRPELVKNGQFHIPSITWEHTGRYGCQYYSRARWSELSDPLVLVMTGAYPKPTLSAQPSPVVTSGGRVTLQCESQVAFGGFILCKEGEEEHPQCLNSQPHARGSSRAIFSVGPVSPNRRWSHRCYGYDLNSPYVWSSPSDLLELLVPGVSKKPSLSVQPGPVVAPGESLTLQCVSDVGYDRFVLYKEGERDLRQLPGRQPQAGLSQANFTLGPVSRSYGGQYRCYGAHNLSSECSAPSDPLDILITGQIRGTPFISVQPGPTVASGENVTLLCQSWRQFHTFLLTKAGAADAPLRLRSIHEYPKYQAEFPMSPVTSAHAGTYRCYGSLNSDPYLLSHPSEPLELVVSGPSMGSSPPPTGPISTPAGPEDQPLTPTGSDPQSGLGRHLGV
Nature of the assay: Luminex ligand blocking assay: bead-coupled ILT4 pre-incubated with antibody (0.5-9,000 ng/mL), then 50 nM biotinylated HLA-G/Fc.

T5 sequence (Q8N149 24-483): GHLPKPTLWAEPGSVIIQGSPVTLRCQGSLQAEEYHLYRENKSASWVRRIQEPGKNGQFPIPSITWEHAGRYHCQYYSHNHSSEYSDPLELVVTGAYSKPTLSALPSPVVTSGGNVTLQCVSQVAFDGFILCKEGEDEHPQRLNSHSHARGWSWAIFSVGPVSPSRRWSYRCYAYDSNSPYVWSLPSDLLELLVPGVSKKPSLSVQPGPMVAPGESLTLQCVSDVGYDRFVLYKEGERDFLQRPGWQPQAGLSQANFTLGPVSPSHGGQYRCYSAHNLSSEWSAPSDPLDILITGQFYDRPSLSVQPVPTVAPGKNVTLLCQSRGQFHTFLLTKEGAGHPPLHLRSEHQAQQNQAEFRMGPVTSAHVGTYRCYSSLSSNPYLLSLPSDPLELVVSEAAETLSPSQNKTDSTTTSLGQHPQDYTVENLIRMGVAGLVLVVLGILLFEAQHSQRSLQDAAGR
T3 sequence (O75023 24-590): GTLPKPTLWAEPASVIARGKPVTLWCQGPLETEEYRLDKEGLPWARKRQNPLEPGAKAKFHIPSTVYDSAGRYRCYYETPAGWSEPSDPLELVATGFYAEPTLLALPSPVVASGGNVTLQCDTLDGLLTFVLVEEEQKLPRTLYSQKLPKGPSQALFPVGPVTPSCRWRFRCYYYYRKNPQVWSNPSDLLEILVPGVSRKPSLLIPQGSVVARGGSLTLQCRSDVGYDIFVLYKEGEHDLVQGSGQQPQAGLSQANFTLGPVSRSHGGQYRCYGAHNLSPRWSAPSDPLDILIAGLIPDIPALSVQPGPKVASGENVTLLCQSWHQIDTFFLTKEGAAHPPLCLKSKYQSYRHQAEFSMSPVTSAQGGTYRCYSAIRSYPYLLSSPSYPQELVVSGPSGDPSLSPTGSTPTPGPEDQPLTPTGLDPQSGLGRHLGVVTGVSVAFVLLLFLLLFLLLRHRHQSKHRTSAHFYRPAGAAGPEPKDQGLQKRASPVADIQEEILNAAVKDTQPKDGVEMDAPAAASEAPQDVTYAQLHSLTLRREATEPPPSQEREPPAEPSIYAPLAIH
T6 sequence (P59901 24-499): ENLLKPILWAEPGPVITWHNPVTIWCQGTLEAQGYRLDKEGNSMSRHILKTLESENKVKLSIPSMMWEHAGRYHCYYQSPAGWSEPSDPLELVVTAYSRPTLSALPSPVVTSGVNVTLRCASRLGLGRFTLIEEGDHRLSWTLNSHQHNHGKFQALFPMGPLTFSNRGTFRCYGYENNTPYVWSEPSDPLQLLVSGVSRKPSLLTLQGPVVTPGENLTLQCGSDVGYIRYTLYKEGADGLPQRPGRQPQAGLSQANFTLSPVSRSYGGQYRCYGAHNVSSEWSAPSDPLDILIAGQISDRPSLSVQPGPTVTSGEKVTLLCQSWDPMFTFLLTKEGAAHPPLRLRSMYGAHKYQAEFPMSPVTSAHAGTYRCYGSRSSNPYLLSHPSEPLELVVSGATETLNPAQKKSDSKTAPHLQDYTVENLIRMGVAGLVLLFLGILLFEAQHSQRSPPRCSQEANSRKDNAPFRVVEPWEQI
T8 sequence (A6NI73 42-299): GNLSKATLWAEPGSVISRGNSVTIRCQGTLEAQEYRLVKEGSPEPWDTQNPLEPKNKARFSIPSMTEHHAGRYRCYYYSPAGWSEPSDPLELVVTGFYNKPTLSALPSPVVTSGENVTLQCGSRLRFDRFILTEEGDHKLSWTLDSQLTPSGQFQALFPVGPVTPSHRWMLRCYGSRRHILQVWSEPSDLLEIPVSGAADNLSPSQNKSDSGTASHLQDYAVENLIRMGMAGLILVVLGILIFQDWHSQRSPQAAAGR
T7 sequence (Q6PI73 24-481): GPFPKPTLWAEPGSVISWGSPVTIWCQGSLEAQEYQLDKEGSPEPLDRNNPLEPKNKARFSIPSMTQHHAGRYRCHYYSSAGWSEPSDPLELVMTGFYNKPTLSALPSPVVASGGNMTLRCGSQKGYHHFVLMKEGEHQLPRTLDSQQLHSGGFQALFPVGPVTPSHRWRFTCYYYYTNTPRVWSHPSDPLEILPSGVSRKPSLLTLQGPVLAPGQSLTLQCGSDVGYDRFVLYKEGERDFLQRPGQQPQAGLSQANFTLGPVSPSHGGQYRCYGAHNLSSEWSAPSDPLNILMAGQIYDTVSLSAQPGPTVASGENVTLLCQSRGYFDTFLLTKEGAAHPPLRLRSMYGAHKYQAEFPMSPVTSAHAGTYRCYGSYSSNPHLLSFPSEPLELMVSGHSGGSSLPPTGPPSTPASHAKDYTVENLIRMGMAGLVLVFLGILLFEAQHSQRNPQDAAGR
T1 sequence (Q8NHL6 24-650): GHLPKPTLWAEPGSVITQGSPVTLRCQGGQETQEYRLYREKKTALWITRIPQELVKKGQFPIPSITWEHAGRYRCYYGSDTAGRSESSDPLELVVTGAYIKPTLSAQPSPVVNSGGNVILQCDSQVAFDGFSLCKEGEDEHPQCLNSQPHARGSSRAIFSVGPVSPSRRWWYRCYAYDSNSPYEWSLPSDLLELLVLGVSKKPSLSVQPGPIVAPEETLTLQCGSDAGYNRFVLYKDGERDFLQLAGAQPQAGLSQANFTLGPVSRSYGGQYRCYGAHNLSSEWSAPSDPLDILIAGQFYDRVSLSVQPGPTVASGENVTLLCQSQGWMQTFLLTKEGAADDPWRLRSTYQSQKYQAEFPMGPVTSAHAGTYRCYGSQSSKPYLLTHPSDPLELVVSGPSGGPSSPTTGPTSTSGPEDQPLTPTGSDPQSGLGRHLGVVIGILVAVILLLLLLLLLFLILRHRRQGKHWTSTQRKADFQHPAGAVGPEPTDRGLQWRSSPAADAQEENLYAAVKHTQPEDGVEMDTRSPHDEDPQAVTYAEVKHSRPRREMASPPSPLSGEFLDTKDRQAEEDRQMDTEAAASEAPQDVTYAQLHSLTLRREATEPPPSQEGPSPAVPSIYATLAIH

B1: 1E1(G4) (antibody, human IgG4 S228P, lambda, V domains shown)
VH: EVQLQQWGAGLLKPSETLSLTCAVYGGSFSGYYWSWIRQPPGKGLEWIGEINHAGSTNYNPSLKSRVTISVDTSKNQFSLKLSSVTAADTAVYYCARLPTRWVTTRYFDLWGRGTLVTVSS
VL: ESVLTQPPSVSGAPGQRVTISCTGSSSNIGAGYDVHWYQQLPGTAPKLLIYGDSNRPSGVPDRFSVSKSGASASLAITGLQAEDEADYYCQSFDNSLSAYVFGGGTQLTVLG
notes: also called 1E1 VH Q1E, S54A/VL Q1E, N53D IgG4 S228P/Lambda
As for B1, the binding result in [1], in assay [2], in assay [3], in [4], in assay [5] and in assay [6] was “no binding (tested: 10 ug/mL)” each time. For the same molecule, the binding result in [7], in [8] and in [9] was “no binding (tested: 10 ug/mL)” throughout. Also, the “KD Ratio” value in assay [10] amounted to 1. Moreover, the Kd in assay [11] turned out to be 17 nM. Also, the off-rate (koff) in [11] amounted to 0.009 s⁻¹.

B2: 3G7 (antibody, V domains shown)
VH: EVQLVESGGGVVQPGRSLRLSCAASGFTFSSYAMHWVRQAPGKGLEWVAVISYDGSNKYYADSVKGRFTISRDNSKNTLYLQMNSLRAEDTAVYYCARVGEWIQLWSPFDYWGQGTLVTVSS
VL: DIQMTQSPSSVSASVGDRVTITCRASQGISSWLAWYQQKPGKAPKFLIYAASSLQSGVPSKFSGSGSGTDFTLTISSLQPEDFATYYCQQYNSYPPTFGGGTKVEIKR
notes: hIgG4 variant in the Luminex and cell assays; also called 3G7 (hIgG4 variant)
Turning to B2, the figures for the half-inhibitory concentration (IC50) in assay [12] and in assay [13] were 0.374 µg/mL and 0.04 µg/mL, respectively.

B3: 1E1 (hIgG4 variant) (antibody)
heavy: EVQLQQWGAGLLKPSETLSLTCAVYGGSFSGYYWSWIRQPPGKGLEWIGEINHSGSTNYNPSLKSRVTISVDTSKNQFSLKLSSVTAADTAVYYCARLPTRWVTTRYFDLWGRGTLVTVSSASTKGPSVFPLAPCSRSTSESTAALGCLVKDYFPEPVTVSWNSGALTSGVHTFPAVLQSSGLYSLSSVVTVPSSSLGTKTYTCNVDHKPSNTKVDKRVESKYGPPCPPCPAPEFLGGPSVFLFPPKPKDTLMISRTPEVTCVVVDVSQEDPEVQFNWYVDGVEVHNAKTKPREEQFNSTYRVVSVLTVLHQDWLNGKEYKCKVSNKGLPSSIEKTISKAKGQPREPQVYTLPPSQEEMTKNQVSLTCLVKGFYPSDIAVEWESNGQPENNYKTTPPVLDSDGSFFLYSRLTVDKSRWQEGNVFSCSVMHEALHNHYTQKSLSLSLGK
light: ESVLTQPPSVSGAPGQRVTISCTGSSSNIGAGYDVHWYQQLPGTAPKLLIYGNSNRPSGVPDRFSVSKSGASASLAITGLQAEDEADYYCQSFDNSLSAYVFGGGTQLTVLGQPKAAPSVTLFPPSSEELQANKATLVCLISDFYPGAVTVAWKADSSPVKAGVETTTPSKQSNNKYAASSYLSLTPEQWKSHRSYSCQVTHEGSTVEKTVAPTECS
notes: The chain assignment is uncertain
On to B3, for which the half-inhibitory concentration (IC50) was 0.0984 µg/mL in [12] and 0.0192 µg/mL in [13].

B4: 2A6 (antibody, V domains shown)
VH: EVQLVQSGAEVKKPGSSVKVSCKASGGTFSSYAISWVRQAPGQGLEWMGGIIPIFGTANYAQKFQGRVTITADESTSTAYMELSSLRSEDTAVYYCARYFDSSGWYKGGAFDIWGQGTMVTVSS
VL: QSVLTQPSSLSASPGASASLTCTLRSGINVDTYRIHWYQQKPGSPPQYLLRYKSDSDKHQGSGVPSRFSGSKDPSANAGILLISGLQSEDEADYYCAIWYSSTWVFGGGTQLTVLG
notes: hIgG4 variant in the Luminex and cell assays; also called 2A6 (hIgG4 variant)
Regarding B4, the concentration for half-maximal inhibition (IC50) stood at 0.233 µg/mL in assay [12] and 0.0177 µg/mL in [13].

B5: 2C1 (antibody, V domains shown)
VH: EVQLVQSGAEVKKPGASVKVSCKVSGYTLTELSMHWVRQAPGKGLEWMGGFDPEDGETIYAQKFQGRVTMTEDTSTDTAYMELSSLRSEDTAVYYCARAGPLYTIFGVVIIPDNWFDPWGQGTLVTVSS
VL: ESVLTQPPSVSGAPGQRVTISCTGSSSNIGAGYDVHWYQQLPGTAPKLLIYGNSNRPSGVPDRFSGSKSGTSASLAITGLQAEDEADYYCQSYDSSLSGSGVVFGGGTQLIILG
notes: hIgG4 variant in the Luminex and cell assays; also called 2C1 (hIgG4 variant)
Turning to B5, the values for the IC50 in assay [12] and in assay [13] were 0.0561 µg/mL and 0.0102 µg/mL, respectively.
